From the Human Domainome abundance scans (Beltran et al. 2025) come the findings set out here.

± gives the uncertainty stated by the source.

The data set can be described thus: abundance fitness (aPCA) (normalised: wild type 0, dead -1); higher = more abundant; growth selection in yeast, the domain comes from the species named. The following applies: Homo sapiens.
As for “Ventral anterior homeobox 1 F119A, Q5SQQ9”, the abundance fitness is -0.74 ± 0.21.

As for “Ventral anterior homeobox 1 F119E, Q5SQQ9”, the abundance fitness was -1.16 ± 0.3. “Ventral anterior homeobox 1 F119G, Q5SQQ9”: the abundance fitness was -0.857 ± 0.16.

On to “Ventral anterior homeobox 1 F119K, Q5SQQ9”, for which the abundance fitness was -0.837 ± 0.31. Take “Ventral anterior homeobox 1 F119N, Q5SQQ9”: the abundance fitness is -0.658 ± 0.32.

For the substance “Ventral anterior homeobox 1 F119P, Q5SQQ9”, the abundance fitness was -0.978 ± 0.34. With “Ventral anterior homeobox 1 F119Q, Q5SQQ9”, the abundance fitness was -0.727 ± 0.39. The same measure for “Ventral anterior homeobox 1 F119R, Q5SQQ9”: -0.88 ± 0.17; for “Ventral anterior homeobox 1 F119S, Q5SQQ9”: -0.64 ± 0.18.

For “Ventral anterior homeobox 1 F119T, Q5SQQ9”, the abundance fitness was -0.856 ± 0.29. On to “Ventral anterior homeobox 1 L115D, Q5SQQ9”, for which the abundance fitness was -0.822 ± 0.4.

For “Ventral anterior homeobox 1 L115E, Q5SQQ9”, the abundance fitness is -0.719 ± 0.29. In the case of “Ventral anterior homeobox 1 L115G, Q5SQQ9”, the abundance fitness was -0.763 ± 0.16.

For “Ventral anterior homeobox 1 L115K, Q5SQQ9”, the abundance fitness is -0.821 ± 0.41.

“Ventral anterior homeobox 1 L115N, Q5SQQ9”: the abundance fitness is -0.637 ± 0.35. For the substance “Ventral anterior homeobox 1 L115R, Q5SQQ9”, the abundance fitness was -0.918 ± 0.16.

In the case of “Ventral anterior homeobox 1 Q111A, Q5SQQ9”, the abundance fitness is -0.226 ± 0.13. With “Ventral anterior homeobox 1 Q111C, Q5SQQ9”, the abundance fitness is -0.214 ± 0.18. Turning to “Ventral anterior homeobox 1 Q111D, Q5SQQ9”, the abundance fitness is -0.564 ± 0.18.

Regarding “Ventral anterior homeobox 1 Q111E, Q5SQQ9”, the abundance fitness is -0.393 ± 0.17. Then “Ventral anterior homeobox 1 Q111F, Q5SQQ9”, with -0.954 ± 0.32; and “Ventral anterior homeobox 1 Q111G, Q5SQQ9”, with -0.715 ± 0.11; and “Ventral anterior homeobox 1 Q111H, Q5SQQ9”, with -0.355 ± 0.17. With “Ventral anterior homeobox 1 Q111I, Q5SQQ9”, the abundance fitness is -0.231 ± 0.27. On to “Ventral anterior homeobox 1 Q111K, Q5SQQ9”, for which the abundance fitness is -0.599 ± 0.28. In the case of “Ventral anterior homeobox 1 Q111L, Q5SQQ9”, the abundance fitness is -0.807 ± 0.17.

“Ventral anterior homeobox 1 Q111M, Q5SQQ9”: the abundance fitness is -0.31 ± 0.19. Consider “Ventral anterior homeobox 1 Q111N, Q5SQQ9”, for which the abundance fitness was -0.262 ± 0.24. Then “Ventral anterior homeobox 1 Q111P, Q5SQQ9”, with -0.716 ± 0.21; and “Ventral anterior homeobox 1 Q111R, Q5SQQ9”, with -0.732 ± 0.12; and “Ventral anterior homeobox 1 Q111S, Q5SQQ9”, with -0.727 ± 0.14. With “Ventral anterior homeobox 1 Q111T, Q5SQQ9”, the abundance fitness was -0.068 ± 0.16. In the case of “Ventral anterior homeobox 1 Q111V, Q5SQQ9”, the abundance fitness was -0.048 ± 0.12. With “Ventral anterior homeobox 1 Y113D, Q5SQQ9”, the abundance fitness came out at 0.287 ± 0.2. Consider “Ventral anterior homeobox 1 Y113E, Q5SQQ9”, for which the abundance fitness turned out to be 0.209 ± 0.17. “Ventral anterior homeobox 1 Y113G, Q5SQQ9” came in with an abundance fitness of 0.01 ± 0.093. As to “Ventral anterior homeobox 1 Y113H, Q5SQQ9”, the abundance fitness is -0.096 ± 0.25.

For the substance “Ventral anterior homeobox 1 Y113K, Q5SQQ9”, the abundance fitness is -0.004 ± 0.24.

For “Ventral anterior homeobox 1 Y113N, Q5SQQ9”, the abundance fitness was 0.168 ± 0.38.

On to “Ventral anterior homeobox 1 Y113R, Q5SQQ9”, for which the abundance fitness is -0.012 ± 0.097.
